Results on 3 substances are retold here after patent publication US20030232051A1.

What all share (experiment): cell-based or functional assay
Assay [1] concerns the target CD16 (on human NK cells) (human) (UniProt P08637).
The target of assay [2] is HA-2DL4 (epitope-tagged 2DL4) (human) (UniProt Q99706).
The target in assay [3] is HA-2DL4 (RY-GT) mutant (human) (UniProt Q99706).
In assay [4] the target is 2B4 (CD244) (on human NK cells) (human) (UniProt Q9BZW8).
Sequence of 2B4 (CD244) (on human NK cells) (human) (Q9BZW8 22-370): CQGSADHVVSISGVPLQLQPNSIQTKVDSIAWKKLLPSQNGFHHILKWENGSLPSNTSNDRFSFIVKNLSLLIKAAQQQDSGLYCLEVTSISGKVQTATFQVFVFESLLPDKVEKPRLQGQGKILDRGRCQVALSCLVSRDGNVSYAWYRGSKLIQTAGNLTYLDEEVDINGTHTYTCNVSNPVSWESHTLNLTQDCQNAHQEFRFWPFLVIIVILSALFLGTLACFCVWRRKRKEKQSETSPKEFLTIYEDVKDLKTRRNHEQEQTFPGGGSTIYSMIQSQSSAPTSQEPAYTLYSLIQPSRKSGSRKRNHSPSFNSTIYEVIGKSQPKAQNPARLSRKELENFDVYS

Sequence of CD16 (on human NK cells) (human) (P08637 17-254): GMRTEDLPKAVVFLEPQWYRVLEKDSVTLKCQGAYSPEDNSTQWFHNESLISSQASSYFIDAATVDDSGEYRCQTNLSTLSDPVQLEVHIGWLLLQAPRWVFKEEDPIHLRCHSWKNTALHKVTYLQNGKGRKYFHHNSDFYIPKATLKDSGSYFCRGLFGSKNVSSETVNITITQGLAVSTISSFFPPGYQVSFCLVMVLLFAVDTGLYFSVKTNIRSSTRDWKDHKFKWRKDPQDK
Sequence of HA-2DL4 (epitope-tagged 2DL4) (human) (Q99706 24-377): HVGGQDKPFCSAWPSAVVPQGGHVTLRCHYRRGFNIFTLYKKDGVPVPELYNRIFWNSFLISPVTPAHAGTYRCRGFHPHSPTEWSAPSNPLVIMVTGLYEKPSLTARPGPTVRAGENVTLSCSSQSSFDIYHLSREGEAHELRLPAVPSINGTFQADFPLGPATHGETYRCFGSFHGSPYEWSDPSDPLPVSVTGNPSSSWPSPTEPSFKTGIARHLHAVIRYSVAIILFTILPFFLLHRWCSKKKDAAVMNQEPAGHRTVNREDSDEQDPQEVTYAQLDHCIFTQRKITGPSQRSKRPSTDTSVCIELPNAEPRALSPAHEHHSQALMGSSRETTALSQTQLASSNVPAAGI
Sequence of HA-2DL4 (RY-GT) mutant (human) (Q99706 24-377, change not shown): as the sequence (Q99706 24-377) above

Take “anti-CD16 mAb 3G8 (IgG1; Medarex) (antibody)”: in assay [1], the increase in IFN-gamma release by IL-2-activated NK cells with P815 cells over that induced by control IgG (fold over control IgG) turned out to be 20.1, the increase in IFN-gamma release by resting NK cells with P815 cells over control IgG (fold over control IgG) is 4.2, the ratio of lysis of P815 cells by IL-2-activated NK cells over that obtained with control Ig (fold over control Ig) is 4.8 and the ratio of lysis of P815 cells by resting NK cells over that obtained with control Ig (fold over control Ig) came out at 4.9.

In the case of “anti-HA mAb 16B12 (IgG1; Covance) (antibody)”, the fold activation of lysis of P815 cells by vaccinia-infected IL-2-activated NK cells (fold over control Ig) in assay [2] was 2.9; in assay [3], 0.56.

For the substance “anti-2B4 mAb C1.7 (IgG1; Beckman Coulter) (antibody)”, in assay [4], the increase in IFN-gamma release by IL-2-activated NK cells with P815 cells over that induced by control IgG (fold over control IgG) worked out at 1.55, the increase in IFN-gamma release by resting NK cells with P815 cells over control IgG (fold over control IgG) is 2.1, the ratio of lysis of P815 cells by IL-2-activated NK cells over that obtained with control Ig (fold over control Ig) came out at 3.3 and the ratio of lysis of P815 cells by resting NK cells over that obtained with control Ig (fold over control Ig) is 3.1.
